The values that follow are results of earlier work, collected in paper PMC12524660.

The series deals with Cys156 (UniProt position 156, VSNASCTTNCL).

On to “Cytosolic NAD-dependent glyceraldehyde-3-phosphate dehydrogenase C1 (GAPC1) (Arabidopsis thaliana)”, for which the pKa entry is recorded as “below pH 6”.
